In PMC9851723:

Target: SARS-CoV-2 nucleocapsid protein (Np) (SARS-CoV-2, UniProt P0DTC9 1-419)
Experiment: SPR

B1: A48t-T20-A61t (DNA-BC) (ssDNA)
DNA: TTCCTTAGGGGCACCGCTACATTTTTTTTTTTTTTTTTTTTTACCTTTACAGATCGGATTCTGTGGGGCG
- Kd: 1.04 nM
